# Measurements reported in patent publication US20160108091A1 (Novartis, published 2016).
# Bridges are numbered along the chain shown (N, C = ends). [ ]: non-standard residue; d: D form. 2Nal = N[C@@H](Cc1ccc2ccccc2c1)C(=O)O; NMeF = CN[C@@H](Cc1ccccc1)C(=O)O; pGlu = O=C1CC[C@@H](C(=O)O)N1; d(hCys) = N[C@H](CCS)C(=O)O; dNle = CCCC[C@@H](N)C(=O)O; hCys = N[C@@H](CCS)C(=O)O; Nle = CCCC[C@H](N)C(=O)O; dAbu = CC[C@@H](N)C(=O)O
# Biological target: T1, human APJ receptor (hAPJ) (human, UniProt P35414 1-380)
# T1 sequence (looked up): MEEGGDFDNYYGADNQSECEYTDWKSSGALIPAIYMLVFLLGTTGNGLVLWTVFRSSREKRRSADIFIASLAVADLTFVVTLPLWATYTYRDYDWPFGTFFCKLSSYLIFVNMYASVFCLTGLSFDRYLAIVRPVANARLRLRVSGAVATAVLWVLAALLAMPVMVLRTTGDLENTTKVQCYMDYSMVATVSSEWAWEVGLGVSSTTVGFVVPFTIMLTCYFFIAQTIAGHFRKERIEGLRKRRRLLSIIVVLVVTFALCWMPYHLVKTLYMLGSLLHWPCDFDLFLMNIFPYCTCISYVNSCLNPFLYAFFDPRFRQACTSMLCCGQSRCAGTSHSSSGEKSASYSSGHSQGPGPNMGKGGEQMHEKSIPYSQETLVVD
# Experiment: cell-based or functional assay
binder,measurement,value
[pGlu]R[dC]RLSCKGP[dNle][dAbu][dF]-OH (disulfide 3-7; SMILES CCCC[C@@H](NC(=O)[C@@H]1CCCN1C(=O)CNC(=O)[C@H](CCCCN)NC(=O)[C@@H]1CSSC[C@@H](NC(=O)[C@H](CCCNC(=N)N)NC(=O)[C@@H]2CCC(=O)N2)C(=O)N[C@@H](CCCNC(=N)N)C(=O)N[C@@H](CC(C)C)C(=O)N[C@@H](CO)C(=O)N1)C(=O)N[C@H](CC)C(=O)N[C@H](Cc1ccccc1)C(=O)O) [pE-R-c*-R-L-S-C*-K-G-P-(D-Nle)-(D-abu)-f-OH],hAPJ Ca^2+ Flux EC50,0.0865 µM
ERPCLSCKGPFAF (pE at 1; hC (L-homocysteine) at 4; disulfide hC4-C7; D-Phe (f) at 11; D-Ala (a) at 12; D-Phe (f) at 13; free C-terminal acid) [pE-R-P-hC*-L-S-C*-K-G-P-f-a-f-OH],hAPJ Ca^2+ Flux EC50,0.0042 µM
Ac-CRPRLS[hCys]KGP[Nle]PF-OH (disulfide 1-7; SMILES CCCC[C@H](NC(=O)[C@@H]1CCCN1C(=O)CNC(=O)[C@H](CCCCN)NC(=O)[C@@H]1CCSSC[C@H](NC(C)=O)C(=O)N[C@@H](CCCNC(=N)N)C(=O)N2CCC[C@H]2C(=O)N[C@@H](CCCNC(=N)N)C(=O)N[C@@H](CC(C)C)C(=O)N[C@@H](CO)C(=O)N1)C(=O)N1CCC[C@H]1C(=O)N[C@@H](Cc1ccccc1)C(=O)O) [Ac-C*-R-P-R-L-S-hC*-K-G-P-Nle-P-F-OH],hAPJ Ca^2+ Flux EC50,0.0214 µM
ERPCLSCKGPLAF (pE at 1; disulfide C4-C7; D-Nle at 11; D-Ala (a) at 12; D-Phe (f) at 13; free C-terminal acid) [pE-R-P-C*-L-S-C*-K-G-P-(D-Nle)-a-f-OH],hAPJ Ca^2+ Flux EC50,0.0019 µM
Ac-CRPRLSCKGP[Nle]P[NMeF]-OH (disulfide 1-7) [Ac-C*-R-P-R-L-S-C*-K-G-P-Nle-P-(N-Me)F-OH],hAPJ Ca^2+ Flux EC50,0.0645 µM
Ac-[hCys]RPRLS[hCys]KGP[Nle]PF-OH (disulfide 1-7; SMILES CCCC[C@H](NC(=O)[C@@H]1CCCN1C(=O)CNC(=O)[C@H](CCCCN)NC(=O)[C@@H]1CCSSCC[C@H](NC(C)=O)C(=O)N[C@@H](CCCNC(=N)N)C(=O)N2CCC[C@H]2C(=O)N[C@@H](CCCNC(=N)N)C(=O)N[C@@H](CC(C)C)C(=O)N[C@@H](CO)C(=O)N1)C(=O)N1CCC[C@H]1C(=O)N[C@@H](Cc1ccccc1)C(=O)O) [Ac-hC*-R-P-R-L-S-hC*-K-G-P-Nle-P-F-OH],hAPJ Ca^2+ Flux EC50,0.0118 µM
ERPCLSCKGPLVF (pE at 1; D-hC at 4; hC at 7; disulfide 4-7; D-Nle at 11; D-Nva (D-norvaline) at 12; D-Phe (f) at 13; free C-terminal acid) [pE-R-P-(D-hC)*-L-S-hC*-K-G-P-(D-Nle)-(D-Nva)-f-OH],hAPJ Ca^2+ Flux EC50,0.175 µM
Ac-CRPRLSCKGP[Nle]P[2Nal]-OH (disulfide 1-7) [Ac-C*-R-P-R-L-S-C*-K-G-P-Nle-P-Nal-OH],hAPJ Ca^2+ Flux EC50,0.0016 µM
[pGlu]RCRLS[d(hCys)]KGP[dF][dA][dF]-OH (disulfide 3-7; SMILES CC(C)C[C@@H]1NC(=O)[C@H](CCCNC(=N)N)NC(=O)[C@@H](NC(=O)[C@H](CCCNC(=N)N)NC(=O)[C@@H]2CCC(=O)N2)CSSCC[C@H](C(=O)N[C@@H](CCCCN)C(=O)NCC(=O)N2CCC[C@H]2C(=O)N[C@H](Cc2ccccc2)C(=O)N[C@H](C)C(=O)N[C@H](Cc2ccccc2)C(=O)O)NC(=O)[C@H](CO)NC1=O) [pE-R-C*-R-L-S-(D-hC)*-K-G-P-f-a-f-OH],hAPJ Ca^2+ Flux EC50,2.29 µM
[pGlu]RPCLSCFGP[dNle][dA][dF]-OH (disulfide 4-7; SMILES CCCC[C@@H](NC(=O)[C@@H]1CCCN1C(=O)CNC(=O)[C@H](Cc1ccccc1)NC(=O)[C@@H]1CSSC[C@H](NC(=O)[C@@H]2CCCN2C(=O)[C@H](CCCNC(=N)N)NC(=O)[C@@H]2CCC(=O)N2)C(=O)N[C@@H](CC(C)C)C(=O)N[C@@H](CO)C(=O)N1)C(=O)N[C@H](C)C(=O)N[C@H](Cc1ccccc1)C(=O)O) [pE-R-P-C*-L-S-C*-F-G-P-(D-Nle)-a-f-OH],hAPJ Ca^2+ Flux EC50,0.002 µM
ERPCLSCKGPLPF (pE at 1; disulfide C4-C7; Nle at 11; free C-terminal acid) [pE-R-P-C*-L-S-C*-K-G-P-Nle-P-F-OH],hAPJ Ca^2+ Flux EC50,0.0031 µM
[pGlu]RCRLSCFGP[dNle][dA][dF]-OH (disulfide 3-7; SMILES CCCC[C@@H](NC(=O)[C@@H]1CCCN1C(=O)CNC(=O)[C@H](Cc1ccccc1)NC(=O)[C@@H]1CSSC[C@H](NC(=O)[C@H](CCCNC(=N)N)NC(=O)[C@@H]2CCC(=O)N2)C(=O)N[C@@H](CCCNC(=N)N)C(=O)N[C@@H](CC(C)C)C(=O)N[C@@H](CO)C(=O)N1)C(=O)N[C@H](C)C(=O)N[C@H](Cc1ccccc1)C(=O)O) [pE-R-C*-R-L-S-C*-F-G-P-(D-Nle)-a-f-OH],hAPJ Ca^2+ Flux EC50,0.0033 µM
Ac-CRPRLSCKGP[Nle]P-NH2 (disulfide 1-7; SMILES CCCC[C@H](NC(=O)[C@@H]1CCCN1C(=O)CNC(=O)[C@H](CCCCN)NC(=O)[C@@H]1CSSC[C@H](NC(C)=O)C(=O)N[C@@H](CCCNC(=N)N)C(=O)N2CCC[C@H]2C(=O)N[C@@H](CCCNC(=N)N)C(=O)N[C@@H](CC(C)C)C(=O)N[C@@H](CO)C(=O)N1)C(=O)N1CCC[C@H]1C(N)=O) [Ac-C*-R-P-R-L-S-C*-K-G-P-Nle-P-NH2],hAPJ Ca^2+ Flux EC50,0.0746 µM
ERPCLSCKGPL (pE at 1; disulfide C4-C7; D-Nle at 11 with C-terminal NH(Phenethyl) amide) [pE-R-P-C*-L-S-C*-K-G-P-(D-Nle)-NH(Phenethyl)],hAPJ Ca^2+ Flux EC50,0.003 µM
ERPCLSCKGPLPF (pE at 1; disulfide C4-C7; Nle at 11; (N-Me)F at 13; free C-terminal acid) [pE-R-P-C*-L-S-C*-K-G-P-Nle-P-(N-Me)F-OH],hAPJ Ca^2+ Flux EC50,0.0042 µM
ERPCLSCKGPLF (pE at 1; disulfide C4-C7; D-Nle at 11; D-Phe (f) at 12; free C-terminal acid) [pE-R-P-C*-L-S-C*-K-G-P-(D-Nle)-f-OH],hAPJ Ca^2+ Flux EC50,0.0006 µM
ERPCLSCKGPL (pE at 1; disulfide C4-C7; Nle at 11 with C-terminal NH(Phenethyl) amide) [pE-R-P-C*-L-S-C*-K-G-P-Nle-NH(Phenethyl)],hAPJ Ca^2+ Flux EC50,0.0005 µM
Ac-CRPRLSCKGP[Nle]P-{NMe(Phenethyl)} (disulfide 1-7) [Ac-C*-R-P-R-L-S-C*-K-G-P-Nle-P-NMe(Phenethyl)],hAPJ Ca^2+ Flux EC50,0.0234 µM
ERPCLSCKGPLP (pE at 1; disulfide C4-C7; Nle at 11; C-terminal NH(Phenethyl) amide on P12) [pE-R-P-C*-L-S-C*-K-G-P-Nle-P-NH(Phenethyl)],hAPJ Ca^2+ Flux EC50,0.0004 µM
H-RPCLSCK[dNle][dA][dF]-OH (disulfide 3-6; SMILES CCCC[C@@H](NC(=O)[C@H](CCCCN)NC(=O)[C@@H]1CSSC[C@H](NC(=O)[C@@H]2CCCN2C(=O)[C@@H](N)CCCNC(=N)N)C(=O)N[C@@H](CC(C)C)C(=O)N[C@@H](CO)C(=O)N1)C(=O)N[C@H](C)C(=O)N[C@H](Cc1ccccc1)C(=O)O) [H-R-P-C*-L-S-C*-K-(D-Nle)-a-f-OH],hAPJ Ca^2+ Flux EC50,0.0667 µM
Ac-CRPRLSCKGP[Nle]P[dA]-OH (disulfide 1-7; SMILES CCCC[C@H](NC(=O)[C@@H]1CCCN1C(=O)CNC(=O)[C@H](CCCCN)NC(=O)[C@@H]1CSSC[C@H](NC(C)=O)C(=O)N[C@@H](CCCNC(=N)N)C(=O)N2CCC[C@H]2C(=O)N[C@@H](CCCNC(=N)N)C(=O)N[C@@H](CC(C)C)C(=O)N[C@@H](CO)C(=O)N1)C(=O)N1CCC[C@H]1C(=O)N[C@H](C)C(=O)O) [Ac-C*-R-P-R-L-S-C*-K-G-P-Nle-P-a-OH],hAPJ Ca^2+ Flux EC50,0.0131 µM
"ERPCLSCKGPL (pE at 1; disulfide C4-C7; Lys 8 N6 carries the BCN carbamate, joined by click reaction to azido-dPEG23-amide of docos-21-ene-1,11,11-tricarboxylic acid (fatty acid-PEG linker, compound A); D-Nle at 11 with C-terminal NH(Phenethyl) amide) [Apelin cyclic peptide conjugated to a fatty acid via a BCN-PEG linker: …]",hAPJ Ca^2+ Flux EC50,2.48 µM
[pGlu]RCRLSCKGP[dNle]-NH2 (disulfide 3-7; SMILES CCCC[C@@H](NC(=O)[C@@H]1CCCN1C(=O)CNC(=O)[C@H](CCCCN)NC(=O)[C@@H]1CSSC[C@H](NC(=O)[C@H](CCCNC(=N)N)NC(=O)[C@@H]2CCC(=O)N2)C(=O)N[C@@H](CCCNC(=N)N)C(=O)N[C@@H](CC(C)C)C(=O)N[C@@H](CO)C(=O)N1)C(N)=O) [pE-R-C*-R-L-S-C*-K-G-P-(D-Nle)-NH2],hAPJ Ca^2+ Flux EC50,0.227 µM
[pGlu]RCRLSCK[dA]P[dNle][dA][dF]-OH (disulfide 3-7; SMILES CCCC[C@@H](NC(=O)[C@@H]1CCCN1C(=O)[C@@H](C)NC(=O)[C@H](CCCCN)NC(=O)[C@@H]1CSSC[C@H](NC(=O)[C@H](CCCNC(=N)N)NC(=O)[C@@H]2CCC(=O)N2)C(=O)N[C@@H](CCCNC(=N)N)C(=O)N[C@@H](CC(C)C)C(=O)N[C@@H](CO)C(=O)N1)C(=O)N[C@H](C)C(=O)N[C@H](Cc1ccccc1)C(=O)O) [pE-R-C*-R-L-S-C*-K-a-P-(D-Nle)-a-f-OH],hAPJ Ca^2+ Flux EC50,0.0722 µM
ERPCLSCKGPLAY (pE at 1; D-Cys (c) at 4; D-hC at 7; disulfide 4-7; D-Nle at 11; D-Ala (a) at 12; D-Tyr (y) at 13; free C-terminal acid) [pE-R-P-c*-L-S-(D-hC)*-K-G-P-(D-Nle)-a-y-OH],hAPJ Ca^2+ Flux EC50,0.937 µM
[pGlu]RCRLSCKAP[dNle][dA][dF]-OH (disulfide 3-7; SMILES CCCC[C@@H](NC(=O)[C@@H]1CCCN1C(=O)[C@H](C)NC(=O)[C@H](CCCCN)NC(=O)[C@@H]1CSSC[C@H](NC(=O)[C@H](CCCNC(=N)N)NC(=O)[C@@H]2CCC(=O)N2)C(=O)N[C@@H](CCCNC(=N)N)C(=O)N[C@@H](CC(C)C)C(=O)N[C@@H](CO)C(=O)N1)C(=O)N[C@H](C)C(=O)N[C@H](Cc1ccccc1)C(=O)O) [pE-R-C*-R-L-S-C*-K-A-P-(D-Nle)-a-f-OH],hAPJ Ca^2+ Flux EC50,0.0858 µM
